Data taken from the nanobody polyreactivity screen of Harvey et al. (2022).

Experiment: yeast display, Sf9 membrane polyspecificity reagent, FACS + sequencing; frameworks hold sequencing errors
In short: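 Using colony PCR, genes from sorted yeast display clones were amplified, then sequenced on MiSeq at 2 × 250 and filtered by CDR length. The clones had been stained with 10% biotinylated, detergent-solubilized Sf9 membrane reagent for 1 hour at 4 °C and sorted by FACS into low and high (top ~1%) gates on anti-HA and streptavidin fluorescence. Polyreactivity labels come from the gate of origin.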

## QVQLVESGGGLVQAGGSLRLSCAASGSTFGYYAMGWSRQAPGKERELVAAIRWSGGSTYADSVKGRFTISRDNAKNTVYLQMNSLKPEDTAVYYCAQYRWYGSVLGGYWGQGTQVTVSS
  polyreactivity (PSR sort gate): high polyreactivity

## QVQLVESGGGLVQAGGSLRLSCAASGSTFGYYAMGWYRQAPGKERELVAAIRYSGGTTYYADSVKGRFTISRDNAKNTVYLQMNSLKPEDTAVYYCAAVYTSGYYYWGQGTQVTVSS
  polyreactivity (PSR sort gate): high polyreactivity

## QVQLVESGGGLVQAGGSLRLSCAASGSTFGYYAMGWYRQAPGKERELVAAISWSGTRTYYADSVKGRFTISRDNAKNTVYLQMNSLKPEDTAVYYCAVRISRPREYYYWGQGTQVTVSS
  polyreactivity (PSR sort gate): high polyreactivity

## QVQLVESGGGLVQAGGSLRLSCAASGSTFGYYAMGWYRQAPGKERELVAAISYRSGSTYYADSVKGRFTISRDNAKNTVYLQMNSLKPEDTAVYYCAAVIQGQQRYEYWGQGTQVTVSS
  polyreactivity (PSR sort gate): high polyreactivity

## QVQLVESGGGLVQAGGSLRLSCAASGSTFGYYAMGWYRQAPGKERELVAAISYSGGSTYYADSVKGRFTISRDNAKNTVYLQMNSLKPEDTAVYYCAARLTRQMYYWGQGTQVTVSS
  polyreactivity (PSR sort gate): high polyreactivity

## QVQLVESGGGLVQAGGSLRLSCAASGSTFGYYAMGWYRQAPGKERELVAAITRRSGRTYYADSVKGRFTISRDNAKNTVYLQMNSLKPEDTAVYYCNKVYPTYYYYRGGPTEYDYWGQGTQVTVSS
  polyreactivity (PSR sort gate): high polyreactivity

## QVQLVESGGGLVQAGGSLRLSCAASGSTFGYYTMGWYSQAPGKEWELVAAITWSGGSTYYADSVKGRFTISRDNAKNTASLQMNSLKPEDTAVYYCNTDQDLVRSYDYWGQGTQVTVSS
  polyreactivity (PSR sort gate): low polyreactivity

## QVQLVESGGGLVQAGGSLRLSCAASGSTFHAYAMGWYRQAPGKERELVAGISWSGGDTTYADSVKGRFTISGDNAKNTVYLQMNSLKPEDTAVYYCAAAGRDPDNYLILNYWGQGTQVTVSS
  polyreactivity (PSR sort gate): low polyreactivity

## QVQLVESGGGLVQAGGSLRLSCAASGSTFHGYAMGWYRQEPGKERELVAAITSGDSTNYADSVKGRFTISRDNAKNTVYLQMNSLKPEDTAVYYCNAEGSSVLTGYWGYPPYWDTYDYWGQGTQVTVSS
  polyreactivity (PSR sort gate): low polyreactivity

## QVQLVESGGGLVQAGGSLRLSCAASGSTFHNYAMGWYRQAPGKERELVAGISVRGGGTYYADSVKGRFTISRDNAKNTVYLQMNSLKPEDTAVYYCAKRSRYYYRYDYWGQGTQVTVSS
  polyreactivity (PSR sort gate): high polyreactivity

## QVQLVESGGGLVQAGGSLRLSCAASGSTFHPNAMGWYRQAPVKERELVAAISRGGSTNYADSVKGRFTISRDNAKNTVYLQMISLKPEDSAVYYCAKDFFGISSDPVVMDYWGQGTQVTVSS
  polyreactivity (PSR sort gate): low polyreactivity

## QVQLVESGGGLVQAGGSLRLSCAASGSTFHRNAMGWYRQAPGKERELVAAISFSGGRTYYADSVKGRFTISRDNAKNTVYLQMNSLKPEDTAVYYCAAVTASPGSYPDDYWGQGTQVTVSS
  polyreactivity (PSR sort gate): low polyreactivity

## QVQLVESGGGLVQAGGSLRLSCAASGSTFHRNAMGWYRQAPGKERELVASISIGGSTNYADSVKGRYTISRDNAKNTVYLQMNSLKPEDTAVYYCATEPNPRRPRVDYDYWGQGTQVTVSS
  polyreactivity (PSR sort gate): low polyreactivity

## QVQLVESGGGLVQAGGSLRLSCAASGSTFHRYAMGWYRQAPGKERELVATINLNTGSTYADSVKGRFTISRDNAKNTVYLQMNSLKPEDTAVYYCAAYGRWPFTWYNYWGQGTQVTVSS
  polyreactivity (PSR sort gate): low polyreactivity

## QVQLVESGGGLVQAGGSLRLSCAASGSTFHRYAMGWYRQAPGKERQLVARINGSGGSTYYADSVKGRFTISRDNAKNTVYLQMNSLKPEDTAVYYCNARAVSVRASTKVPSGLYDFWGQGTQVTVSS
  polyreactivity (PSR sort gate): low polyreactivity

## QVQLVESGGGLVQAGGSLRLSCAASGSTFHRYPMGWYRQAPGKERELVAAISVRTGSTYYADSVKGRFTISRDNAKNTDYLQINRLTPEDTAVYYCAVGKQINGKIYRYDYWGQGTQVTVSS
  polyreactivity (PSR sort gate): high polyreactivity

## QVQLVESGGGLVQAGGSLRLSCAASGSTFHSNAMGWYRQAPGKEREVVATISFGGGSKYYADSVKGRFTISRDNAKNTVYLQMNSLKPEDTAVYYCARDQTFGPCPYVWYYYPGYDYWGQGTQVTVSS
  polyreactivity (PSR sort gate): low polyreactivity

## QVQLVESGGGLVQAGGSLRLSCAASGSTFHSYAMGWYRQAPGKERELVAGITWGGGTYYADSVKGRFTISRDNAKNTVYLQMNSLKPEDTAVYYCAALSYVGSNVYTGAPAAPYDYWGQGTQVTVSS
  polyreactivity (PSR sort gate): low polyreactivity

## QVQLVESGGGLVQAGGSLRLSCAASGSTFHTNAMGWYRQAPGKERELVDAISRSGTSTYYADSVKGRFTISRDNAKNSVYCQMNSLNPEDTAVYYCAAYGPRVNGEIGREYYYWGQGTQVTVSS
  polyreactivity (PSR sort gate): low polyreactivity

## QVQLVESGGGLVQAGGSLRLSCAASGSTFHTYGMGWYRQAPGKERELVSAIDLSDGSTYYADSVKGRFTISRDNAKNTVYLQMNSLKPEDTAVYYCNADYFPKPYRPDDYWGQGTQVTVSS
  polyreactivity (PSR sort gate): low polyreactivity

## QVQLVESGGGLVQAGGSLRLSCAASGSTFHVYAMGWYRQAPGKERELVAGITSSGYSTYYADSVKGRFTISRDNAKNTVYLKMNSLKPEETAVYYCNADIRGPYYYHRYDYWGQGTLVTVSS
  polyreactivity (PSR sort gate): low polyreactivity

## QVQLVESGGGLVQAGGSLRLSCAASGSTFHWYDMGWYRPAPGKERELVAGINSSGDGTYYADSVKGRFTISRDNAKNTVYLQMNSLKPEDTAVYYCAAPWWYYGVPYQTNKYDYWGQGTQVTVSS
  polyreactivity (PSR sort gate): low polyreactivity

## QVQLVESGGGLVQAGGSLRLSCAASGSTFHYNAMGWYRQAPGKERELVAAIDNGGRTNYADSVKGRFTISRDNAKNTVYLQMNSLKPEDPAVYYCATRGYFWSFTTSYYHYYYWGQGTQVTVSS
  polyreactivity (PSR sort gate): high polyreactivity

## QVQLVESGGGLVQAGGSLRLSCAASGSTFIANAMGWYRQAPGKERELVAAISASGDSTYYADSVKGRFTISRDNAKNTVYLQMNSLKPEDTAVYYCAADTSVHRHDYWGQGTQVTVSS
  polyreactivity (PSR sort gate): low polyreactivity

## QVQLVESGGGLVQAGGSLRLSCAASGSTFIANAMGWYSQAPGKERELVAGITRGGSTYYADSVKGRFTISRDNAKHTVYLQMNSLNPEDTAVYYCATDLRSYYYQWTYYHWGQATQVTVSS
  polyreactivity (PSR sort gate): low polyreactivity

## QVQLVESGGGLVQAGGSLRLSCAASGSTFIDYAMGWYRQAHGKERELVAGISSGDSTDYADSVKGRFTISRDNAKNTVYLQMNSLKPEDTAVYYCNADWNPTERWFYWYTPLGYDYWGQGTQVTVSS
  polyreactivity (PSR sort gate): low polyreactivity

## QVQLVESGGGLVQAGGSLRLSCAASGSTFIFNAMGWYRQAPGKERELVAAISWRLGRTYYADSVKGRFTISRDNAKKTVYLQMNSLKPEDTAVYYCARDYSRHKGDYWGQGTQVTVSS
  polyreactivity (PSR sort gate): low polyreactivity

## QVQLVESGGGLVQAGGSLRLSCAASGSTFIFYAMGWYRQAPGKERELVAAISSGGITNYADSVKGRFTISRDNAKNTVYLQMNSLKPEDTAVYYCAKRKGPRWSRQYRYPYYSWGQGTQVTVSS
  polyreactivity (PSR sort gate): high polyreactivity

## QVQLVESGGGLVQAGGSLRLSCAASGSTFIIYAMGWYRQEPGKEREFVATITGRGGRTYYAVSVKGRFTISRDNAKNTVYLQMNSLKPEDTAVYYCAKGLGSGQEIYGYDYGGQGTQVTVSS
  polyreactivity (PSR sort gate): high polyreactivity

## QVQLVESGGGLVQAGGSLRLSCAASGSTFILNAMGWYRQAPGKERELVAAISRSGGNTYYADSVKGRFTISRDIAKNTVYLQMNSLKPEDTAVYYCAATRRSHYYYWGQGTQVTVSS
  polyreactivity (PSR sort gate): high polyreactivity

## QVQLVESGGGLVQAGGSLRLSCAASGSTFIPNAMGWYRQAPGKERELVAAISTGGSTNYADSVKGRFTISRDNAKNTVYLQMNSLKPEDTAVYYCNDRRGYFNPGRRFYYWGQGTQVTVSS
  polyreactivity (PSR sort gate): low polyreactivity

## QVQLVESGGGLVQAGGSLRLSCAASGSTFIVKAMGWYRHAPGKERELVAAITEDGDTTYYADSVKGRFTISRDNAKKTVYLQMNSLKPEDTAVYYCAAETYYLDDYWGQGTQVTVSS
  polyreactivity (PSR sort gate): high polyreactivity

## QVQLVESGGGLVQAGGSLRLSCAASGSTFIVNAMGWYRQAPGKERELVAAIRRGTRTNYADSVKGRFTISRDNAKNTVYLQMNSLKPEDTAVYYCAVRGSYRGWYDYWGQGTQVTVSS
  polyreactivity (PSR sort gate): high polyreactivity

## QVQLVESGGGLVQAGGSLRLSCAASGSTFIVYAMGWYRQAPGKERELVAAISLDGGSTYYADSVKGRFTISRDNAKNTVYLQMNSLKPEDSAVYYCNADYYANSITYDSWGQGSQVTVSS
  polyreactivity (PSR sort gate): low polyreactivity

## QVQLVESGGGLVQAGGSLRLSCAASGSTFIWYAMGWYRQAPGKERELVAAINRSGGSTYYADSVKGRFTISRDNAKNTVYLQMNSLKPEDTAVYYCAAQGGGYRGLKYYYWGQGTQVTVSS
  polyreactivity (PSR sort gate): high polyreactivity

## QVQLVESGGGLVQAGGSLRLSCAASGSTFIWYARGWYRQAPGKERELVAAISRSGGSTYYADSVKGRFTISRDNAKNTVYLQMNSLKPEDTAVYYCNTYPTYQYYYWGQGTQVTVSS
  polyreactivity (PSR sort gate): high polyreactivity

## QVQLVESGGGLVQAGGSLRLSCAASGSTFIYYAMGWYRKAPGKEREFVAAISYRGGSTYYADSVKGRFTISRDNAKNTVYLQMNSLKPEDTAVYYCAASYRKWNDYWGQGTQVTVSS
  polyreactivity (PSR sort gate): high polyreactivity

## QVQLVESGGGLVQAGGSLRLSCAASGSTFIYYAMVWYRQAPGKERELVASLSRSGGSTYYADSVKGRFTISRDNAKNTVYLQMNSLKPEDTAVYYCARAYRSSFNYWGQGTQVTVSS
  polyreactivity (PSR sort gate): high polyreactivity

## QVQLVESGGGLVQAGGSLRLSCAASGSTFKAYAMGWYRQAPGKERELVAAITNSDGDTYYADSVKGRFTISRDNAKNTVYLLMNSLKPEDTAVYYFNADDALRQTSDYNYWGQGTQVTVSS
  polyreactivity (PSR sort gate): low polyreactivity

## QVQLVESGGGLVQAGGSLRLSCAASGSTFKAYAMGWYRQAPGKQRELVAAITKSGGRTYYADSVKGRFTISRDNAKNTVYLQMNSLKPEDTAVYYCAAVFRPDSSAYRYYYWGQGTQVTVSS
  polyreactivity (PSR sort gate): high polyreactivity

## QVQLVESGGGLVQAGGSLRLSCAASGSTFKGNTMGWYRQAPGKERELVAAISWRGGSTYYADSVKGRFTISRDNAKNTVYLQMNSMKPEDTAVYYCAAKSHWWWRGYYYLGQGTQVTVSS
  polyreactivity (PSR sort gate): high polyreactivity

## QVQLVESGGGLVQAGGSLRLSCAASGSTFKGYAMGWYRQAPGKERELVAAISSRTGSTYYADSVKGRFTISRDNAKNTVYLQMNSLKPEDTAVYYCAAPWFRDTRGYSLYDYWGQGTQVTVSS
  polyreactivity (PSR sort gate): high polyreactivity

## QVQLVESGGGLVQAGGSLRLSCAASGSTFKINALGWYIQAPGKERELVALIRASGASTYYADSVKGRFTISRDNAKKTVYLRMNILKPEDTAVYYCAATTRGYKWVGRDYDYWGQGTQVTVSS
  polyreactivity (PSR sort gate): high polyreactivity
